Experimental data: US20120047600A1, “CAFFEOYL COA REDUCTASE” (priority 2010, published 2012)

Assays:
Assay type in all cases: biochemical, M. truncatula
Medicago CCR2 = Medicago CCR2 (Medicago truncatula, UniProt G7JEE5); assay: CCR enzyme activity assay with purified recombinant Medicago CCR2 expressed in E. coli; conditions: for CCR2 activity at higher substrate concentrations: substrate inhibition, FIG. 5C,D
From the text: (§1) To assess the potential of Medicago CCRs to produce caffeoyl aldehyde, CCR1 and CCR2 were expressed in E. coli and assayed the purified recombinant enzymes with varying concentrations of each of the four potential substrates, 4-coumaroyl-, caffeoyl-, feruloyl- and sinapoyl-CoAs. Briefly, the coding regions of CCR1 and CCR2 were amplified from the original cDNA clones with introduction of NheI enzyme sites before the ATG start codons, a BamHI site after the CCR1 stop codon, and an XhoI site after the CCR2 stop codon. The primers EpCCR1F and EpCCR1R (see Table 3 below) were used for amplification of CCR1, and EpCCR2F and EpCCR2R were used for amplification of CCR2. The PCR products were cloned into T-vector (Promega). After confirmation by sequencing, both CCR sequences were subcloned into pET28a vector (Novagen) and the resulting constructs introduced into E. coli strain BL21 ([…]) (Novagen). The clones with correct inserts were grown at 37° C. until OD600 reached about 0.6, IPTG was added to a final concentration at 0.25 mM, and culture continued at 16° C. overnight. Induced E. coli cells were harvested by centrifugation at 5,000 g for 10 min, frozen in liquid nitrogen and stored at −80° C.
(§2) All enzyme purification steps were carried out at 4° C. The harvested cells were suspended in extraction buffer (100 mM Hepes-NaOH, pH 7.5, 500 mM NaCl, 10 mM imidazole, 10% glycerol, 10 mM mercaptoethanol, 1 mM EDTA, and 1 mM PMSF), sonicated three times for 20 s and centrifuged at 16,000 g for 10 min. The supernatants were mixed with Ni-NTA His-bind resin (Promega). After washing three times in extraction buffer without PMSF, the recombinant proteins were eluted with elution buffer (100 mM Hepes-NaOH, 10% glycerol, 1 mM EDTA, 10 mM mercaptoethanol, and 500 mM imidazole) and the protein stored at −80 ° C. until assay.
(§3) For CCR enzyme activity assays purified CCR protein (2.5 μg) was mixed with assay buffer (100 mM phosphate pH 6.25, 10 mM 2-mercaptoethanol, 0.2 mM NADPH and cinnamoyl CoA substrates at the indicated concentration) in a final volume of 500 μl. The reaction was carried out at 30° C. for 5 min and then terminated with the addition of 70 μL 24% trichloroacetic acid. The reaction mixture was extracted with ethyl acetate (0.6 ml×3) and the combined organic phases dried under a stream of N2. […] Compounds were identified by comparing their UV spectra and retention times with authentic standards of hydroxycinnamoyl aldehydes, and quantified by means of standard curves with correction for recovery of internal standards. Protein concentrations were determined using Bradford reagent (Bio-Rad). For kinetic analysis at various substrate concentrations, enzyme velocity curves were analyzed using Sigmaplot 10 software (Systat Software Inc.).

Medicago CCR1 = Medicago CCR1 (Medicago truncatula, UniProt A0A072VDF2); assay: CCR enzyme activity assay with purified recombinant Medicago CCR1 expressed in E. coli; conditions: for CCR1 activity with substrate: qualitative, FIG. 5A,C
From the text: as §1
All enzyme purification steps were carried out at 4° C. […]
as §3, with “μl.” for “μl. The reaction was carried out at 30° C. for 5 min and then terminated with the addition of 70 μL 24% trichloroacetic acid. The reaction mixture was extracted with ethyl acetate (0.6 ml×3) and the combined organic phases dried under a stream of N2.”

[1] = substrate: CC(C)(COP(=O)(O)OP(=O)(O)OC[C@H]1O[C@@H](n2cnc3c(N)ncnc32)[C@H](O)[C@@H]1OP(=O)(O)O)[C@@H](O)C(=O)NCCC(=O)NCCSC(=O)/C=C/c1ccc(O)c(O)c1; assay: CCR enzyme activity assay with purified recombinant Medicago CCR2 expressed in E. coli; conditions: other: CCR2; compound as substrate; S0.5 given in place of Km for coumaroyl and caffeoyl CoAs (sigmoidal velocity curves)
From the text: as §1, §2
(§4) For CCR enzyme activity assays purified CCR protein (2.5 μg) was mixed with assay buffer (100 mM phosphate pH 6.25, 10 mM 2-mercaptoethanol, 0.2 mM NADPH and cinnamoyl CoA substrates at the indicated concentration) in a final volume of 500 μl. The reaction was carried out at 30° C. for 5 min and then terminated with the addition of 70 μL 24% trichloroacetic acid. The reaction mixture was extracted with ethyl acetate (0.6 ml×3) and the combined organic phases dried under a stream of N2. The pellet was re-suspended in 50 μL methanol and 25 μL was subjected to HPLC analysis out on a Beckman System Gold HPLC system consisting of a programmable solvent module 126, a System Gold 508 autosampler and a System Gold 168 diode array detector. A Waters Spherisorb ODS-2 5 μm reverse phase column (5 μm particle, 250×4.6 mm) was used. Compounds were identified by comparing their UV spectra and retention times with authentic standards of hydroxycinnamoyl aldehydes, and quantified by means of standard curves with correction for recovery of internal standards. Protein concentrations were determined using Bradford reagent (Bio-Rad). For kinetic analysis at various substrate concentrations, enzyme velocity curves were analyzed using Sigmaplot 10 software (Systat Software Inc.).

[2] = substrate: CC(C)(COP(=O)(O)OP(=O)(O)OC[C@H]1O[C@@H](n2cnc3c(N)ncnc32)[C@H](O)[C@@H]1OP(=O)(O)O)[C@@H](O)C(=O)NCCC(=O)NCCSC(=O)/C=C/c1ccc(O)cc1; assay: as above; conditions: other: CCR2; compound as substrate; S0.5 given in place of Km for coumaroyl and caffeoyl CoAs (sigmoidal velocity curves)
From the text: as §1, §2, §4

[3] = substrate: COc1cc(/C=C/C(=O)SCCNC(=O)CCNC(=O)[C@H](O)C(C)(C)COP(=O)(O)OP(=O)(O)OC[C@H]2O[C@@H](n3cnc4c(N)ncnc43)[C@H](O)[C@@H]2OP(=O)(O)O)cc(OC)c1O; assay: as above; conditions: other: CCR2; compound as substrate; S0.5 given in place of Km for coumaroyl and caffeoyl CoAs (sigmoidal velocity curves)
From the text: as §1, §2, §4

[4] = substrate: COc1cc(/C=C/C(=O)SCCNC(=O)CCNC(=O)[C@H](O)C(C)(C)COP(=O)(O)OP(=O)(O)OC[C@H]2O[C@@H](n3cnc4c(N)ncnc43)[C@H](O)[C@@H]2OP(=O)(O)O)ccc1O; assay: as above; conditions: other: CCR2; compound as substrate; S0.5 given in place of Km for coumaroyl and caffeoyl CoAs (sigmoidal velocity curves)
From the text: as §1, §2, §4

[5] = substrate: CC(C)(COP(=O)(O)OP(=O)(O)OC[C@H]1O[C@@H](n2cnc3c(N)ncnc32)[C@H](O)[C@@H]1OP(=O)(O)O)[C@@H](O)C(=O)NCCC(=O)NCCSC(=O)/C=C/c1ccc(O)c(O)c1; assay: CCR enzyme activity assay with purified recombinant Medicago CCR1 expressed in E. coli; conditions: other: CCR1; compound as substrate; mean of three replicate sets of assays
From the text: as §1, §2, §4

[6] = substrate: CC(C)(COP(=O)(O)OP(=O)(O)OC[C@H]1O[C@@H](n2cnc3c(N)ncnc32)[C@H](O)[C@@H]1OP(=O)(O)O)[C@@H](O)C(=O)NCCC(=O)NCCSC(=O)/C=C/c1ccc(O)cc1; assay: as above; conditions: other: CCR1; compound as substrate; mean of three replicate sets of assays
From the text: as §1, §2, §4

[7] = substrate: COc1cc(/C=C/C(=O)SCCNC(=O)CCNC(=O)[C@H](O)C(C)(C)COP(=O)(O)OP(=O)(O)OC[C@H]2O[C@@H](n3cnc4c(N)ncnc43)[C@H](O)[C@@H]2OP(=O)(O)O)cc(OC)c1O; assay: as above; conditions: other: CCR1; compound as substrate; mean of three replicate sets of assays
From the text: as §1, §2, §4

[8] = substrate: COc1cc(/C=C/C(=O)SCCNC(=O)CCNC(=O)[C@H](O)C(C)(C)COP(=O)(O)OP(=O)(O)OC[C@H]2O[C@@H](n3cnc4c(N)ncnc43)[C@H](O)[C@@H]2OP(=O)(O)O)ccc1O; assay: as above; conditions: other: CCR1; compound as substrate; mean of three replicate sets of assays
From the text: as §1, §2, §4

COc1cc(/C=C/C(=O)SCCNC(=O)CCNC(=O)[C@H](O)C(C)(C)COP(=O)(O)OP(=O)(O)OC[C@H]2O[C@@H](n3cnc4c(N)ncnc43)[C@H](O)[C@@H]2OP(=O)(O)O)cc(OC)c1O [Sinapoyl CoA]
CCR2 activity relative to CCR1 (Medicago CCR2; at 20 μM substrate): almost twice as active
CCR2 activity (Medicago CCR2; at 50 μM substrate): virtually no activity
CCR2 activity at higher substrate concentrations (Medicago CCR2): strongly inhibited

CC(C)(COP(=O)(O)OP(=O)(O)OC[C@H]1O[C@@H](n2cnc3c(N)ncnc32)[C@H](O)[C@@H]1OP(=O)(O)O)[C@@H](O)C(=O)NCCC(=O)NCCSC(=O)/C=C/c1ccc(O)c(O)c1 [Caffeoyl CoA]
CCR1 activity relative to CCR2 activity (Medicago CCR1; at 50 μM substrate (FIG. 5A)): around 7%
CCR1 activity with substrate (Medicago CCR1): very low activity

COc1cc(/C=C/C(=O)SCCNC(=O)CCNC(=O)[C@H](O)C(C)(C)COP(=O)(O)OP(=O)(O)OC[C@H]2O[C@@H](n3cnc4c(N)ncnc43)[C@H](O)[C@@H]2OP(=O)(O)O)ccc1O [Feruloyl CoA]
CCR1 activity with substrate (Medicago CCR1): most active
CCR2 activity at higher substrate concentrations (Medicago CCR2): strongly inhibited

B1: Medicago CCR2 (Medicago truncatula) (protein)
chain: MPAYDNTSSVSGGDQTVCVTGAGGFIASWLVKLLLERGYTVRGTVRNPEDPKNGHLKELEGARERLTLHKVDLLDLQSIQSVVHGCHGVFHTASPVTDNPDEMLEPAVNGTKNVIIASAEAKVRRVVFTSSIGTVYMDPNTSRDVVVDESYWSDLEHCKNTKNWYCYGKTVAEQSAWDIAKENQVDLVVVNPVVVLGPLLQPTINASTIHILKYLNGAAKTYVNATQSYVHVKDVALAHLLVYETNSASGRYICCETALHRGEVVEILAKYFPEYPLPTKCSDEKNPRVKPYKFSNQKLKDLGLEFTPVKQCLYDTVRSLQEKGHLPIPPMQEDSA
K0.5 [1]: 23.4 ± 0.80 µM
Vmax [1]: 0.35 ± 0.01 µmol/min
kcat [1]: 0.15 ± 0.005 s⁻¹
kcat/Km [1]: 8170 ± 330 M⁻¹ s⁻¹
K0.5 [2]: 12.4 ± 1.0 µM
Vmax [2]: 0.44 ± 0.01 µmol/min
kcat [2]: 0.29 ± 0.0067 s⁻¹
kcat/Km [2]: 15000 ± 500 M⁻¹ s⁻¹
K0.5 [3]: 32.7 ± 3.6 µM
Vmax [3]: 0.32 ± 0.02 µmol/min
kcat [3]: 0.2 ± 0.0183 s⁻¹
kcat/Km [3]: 6170 ± 830 M⁻¹ s⁻¹
K0.5 [4]: 44.5 ± 4.5 µM
Vmax [4]: 0.48 ± 0.05 µmol/min
kcat [4]: 0.302 ± 0.0333 s⁻¹
kcat/Km [4]: 6670 ± 830 M⁻¹ s⁻¹

B2: Medicago CCR1 (Medicago truncatula) (protein)
chain: MPAATAAAAAESSSVSGETICVTGAGGFIASWMVKLLLEKGYTVRGTLRNPDDPKNGHLKKLEGAKERLTLVKVDLLDLNSVKEAVNGCHGVFHTASPVTDNPEEMVEPAVNGAKNVIIAGAEAKVRRVVFTSSIGAVYMDPNRSVDVEVDESCWSDLEFCKKTKNWYCYGKAVAEAAAWDVAKEKGVDLVVVNPVLVLGPLLQPTINASTIHILKYLTGSAKTYANATQAYVHVRDVALAHILVYEKPSASGRYLCAETSLHRGELVEILAKYFPEYPIPTKCSDEKNPRVKPHIFSNKKLKDLGLEFTPVSECLYETVKSLQDQGHLSIPNKEDSLAVKS
K0.5 [5]: 161 ± 6.8 µM
Vmax [5]: 0.085 ± 0.0 µmol/min
kcat [5]: 0.0517 ± 0.0012 s⁻¹
kcat/Km [5]: 317 ± 0 M⁻¹ s⁻¹
K0.5 [6]: 56.8 ± 4.7 µM
Vmax [6]: 0.25 ± 0.01 µmol/min
kcat [6]: 0.15 ± 0.00167 s⁻¹
kcat/Km [6]: 2670 ± 1700 M⁻¹ s⁻¹
K0.5 [7]: 7.2 ± 0.4 µM
Vmax [7]: 0.15 ± 0.01 µmol/min
kcat [7]: 0.0917 ± 0.00233 s⁻¹
kcat/Km [7]: 11300 ± 830 M⁻¹ s⁻¹
K0.5 [8]: 54.5 ± 3.2 µM
Vmax [8]: 1.64 ± 0.11 µmol/min
kcat [8]: 1 ± 0.0342 s⁻¹
kcat/Km [8]: 19000 ± 1300 M⁻¹ s⁻¹
